In patent US20040233833A1, “Methods for identifying compounds with thrapeutic potential for treatment of central Neurodegenerative diseases resulting from abnormal protein or peptide accumulation” (priority 2001, published 2004):

Assays:
[1] = molecular target: proteasome (chymotrypsin-like activity) (Homo sapiens, UniProt P28072+P28074+Q99436); assay: Activity screen of E. coli lysates expressing mutagenized REGγ for stimulation of LLVY-MCA cleavage; format: biochemical; settings: 170 ng proteasome, 100 μM LLVY-MCA, 10-minute incubation; 1400 colonies
Method: Error-prone PCR was used to introduce random mutation into the REGγ DNA. See Zhang et al., (1998)Idnetification of an Activation Region in the Proteasome Activator REGα. Proc. Natl. Acad. Sci. 95:2807-2811. The PCR products were inserted into pET26(b) through NdeI/BamHI sites. The resulting plasmid library was transformed into BL21(DE3) cells. About 60% of the isolated colonies contained a single-site mutation.
Transformants were picked and grown at 37° C. in LB containing 25 μg/ml kanamycin. Protein expression was induced with 0.8 mM IPTG for 2 hours at 30° C. Cells were collected by centrifugation and lysed with 10 mM Tris-HCL, pH 7.5, 0.5% Triton X-100, and 0.3 mg/ml polymixin B sulfate. Aliquots were incubated with 170 ng proteasome and 100 μM LLVY (SEQ ID NO:1)-MCA. After a 10-minute incubation, reactions were terminated with 200 μl of ethanol and fluorescence was measured. See Li et al (2000), The Proteasome Activator 11S REG or PA28: Chimeras Implicate Carboxyl-Terminal Sequences in Oligomerization and Proteasome Binding But Not in the Activation of Specific Proteasome Catalytic Subunits, J. Mol. Biol. 299:641-54.

proteasomes = proteasomes (Homo sapiens, UniProt P28072+P28074+Q99436); assay: Proteasomal degradation of fluorescein-labeled polyQ peptides (molecular exclusion chromatography); format: biochemical; settings: proteasome + activator, 5 hr incubation
Method: The following peptides were synthesized using routine peptide synthesis:
Each peptide was incubated for 5 hr with proteasomes alone, proteasomes+REGγ, proteasome+REGγ(K188E) or proteasomes+REGα/β. Degradation was assayed by molecular exclusion chromatography using fluorescein as a signal (see FIG. 2). The degradation products were identified by HPLC-MS (FIG. 3). […] By contrast, in the presence of REGγ(K188E) the various polyQ peptides were degraded 5 to 10-fold faster.

proteasome = proteasome (Homo sapiens, UniProt P28072+P28074+Q99436); assay: REGα(N146Y)/REGβ(N135Y) competition assay for relative proteasome affinity; format: binding; settings: in terms of REGα(N146Y)/REGβ(N135Y) competition; wild-type REGγ 100
Excerpt: As a measure of the relative affinities of REGγ and the REGγLys188 mutants for the proteasome, a competition assay was used. See Li et al. (2000), The Proteasome Activator 11S REG or PA28: Chimeras Implicate Carboxyl-Terminal Sequences in Oligomerization and Proteasome Binding But Not in the Activation of Specific Proteasome Catalytic Subunits. J. Mol. Biol. 299:641-54. All REGγLys188 mutants were relatively resistant to REGα(N146Y)/REGβ(N135Y) competition with apparent proteasome affinities varying from 40% to 90% that of wild-type REGγ.

[2] = molecular target: T1, Human red blood cell proteasomes (Homo sapiens, UniProt P28072+P28074+Q99436); assay: Activation of fluorogenic peptide hydrolysis by the proteasome in the presence of REG variants; format: biochemical; settings: for Stimulation of cleavage (x-fold) LLE: substrate LLE-βNA (PGPH site); for Stimulation of cleavage (x-fold) LLVY: substrate LLVY-MCA (chymotrypsin-like site); for Stimulation of cleavage (x-fold) LRR: substrate LRR-MCA (trypsin-like site); for Stimulation of hydrolysis of LLVY-MCA and LLE-βNA: summary of Table 1
T1 construct: Human red blood cell proteasomes; from tissue; host or cells: human red blood cells
Method: Human red blood cell proteasomes (170 ng) were mixed with increasing amounts of purified REG variants. The reactions were started by adding 50 μl of 200 μMscu-LLVY-MCA, Boc-LRR-MCA, or Boc-LLE-βNA in 10 mM Tris, pH 7.5. After a 10 min incubation, the reaction was quenched with 200μl of cold 100% ethanol, and the released MCA or βNA ws measured fluometrically. Each data point represents the mean of three measurements from a single experiment. […] REGα (▪), REGγ(□), REGγ(K188E) or REGγ(K188D) (●), REGγ(K188H) (∘), REGγ(K188Q) or REGγ(K188N) (Δ), REGγ(K188A) (♦). The data for REGγ(K188E) and REGγ(K188D) and for REGγ(K188Q) and REGγ(K188N) were combined since their activities were indistinguishable.
Because each positive variant identified in the previous example included a mutation at Lys188, site-directed mutagenesis was used to generate a series of amino acid substitutions at this residue. Twelve mutants were constructed in which Lys188 of REGγ was changed to Ala, Arg, Asn, Asp, Cys, Gln, Glu, His, Ile, Phe, Pro, or Ser. Wild-type REGγ and the Lys 188 variants were expressed in E. coli, purified, and the activation specificity of each protein was measured using the diagnostic peptides LLVY (SEQ ID NO:1)-MCA, LRR-MCA, and LLE-βNA. Except for the K188R variant, all Lys 188 mutants stimulated the hydrolysis of LRR-MCA by the proteasome to the same extent or slightly better than wild-type REGγ. Substitution of negatively-charged Glu or Asp for the positively-charged Lys188 produced mutants with activation properties almost identical to REGα.
To determine the degree to which the activation specificity of REGγ(K188E/D) variants matches that of REGα, proteasomal cleavage of a series of fluorogenic peptides was measured in the presence of each activator.

[3] = Heptamer stability on rechromatography (Superdex 200 size exclusion column); format: physicochemical; settings: for Percent heptamer: after second gel filtration; for Percentage that remained heptamers on rechromatography: Superdex 200 second gel filtration
Excerpt: To examine the effect of Lys188 substitution on REGγ heptamer stability, the wildtype and Lys 188 variant heptamers were rechromatographed on the Superdex 200 (26/60) size exclusion column used for purification. […] Replacement of Lys 188 by Pro or Phe severely affected the stability of REGγ heptamer.

Row | Substance | Relative affinity for proteasome (proteasome) | Stimulation of cleavage (x-fold) LLE [2] | Stimulation of cleavage (x-fold) LLVY [2] | Stimulation of cleavage (x-fold) LRR [2] | Percent heptamer [3] | Percentage that remained heptamers on rechromatography [3] | further results
1 | (F102I, K188N): REGγ double mutant F102I, K188N isolated from the error-prone PCR library | – | – | – | – | – | – | Colony screen for stimulation of LLVY-MCA cleavage [1]: positive
2 | (L38V, K188N): REGγ double mutant L38V, K188N isolated from the error-prone PCR library | – | – | – | – | – | – | Colony screen for stimulation of LLVY-MCA cleavage [1]: positive
3 | (L71P, K188E): REGγ double mutant L71P, K188E isolated from the error-prone PCR library | – | – | – | – | – | – | Colony screen for stimulation of LLVY-MCA cleavage [1]: positive
4 | REGα/β: REGα/β hetero-heptamer proteasome activator | – | – | – | – | – | – | % Degraded, substrate F1-EPQPQ (proteasomes): 55%; % Degraded, substrate F1-KSQPQ (proteasomes): 85%; % Degraded, substrate F1-QHQ (proteasomes): 80%; % Degraded, substrate F1-QPQ (proteasomes): 85%; % Degraded, substrate F1-QQQ (proteasomes): 85%
5 | γK188A: mutant REGγ in which Lys188 was changed to Ala | 60 | 6 x-fold | 6 x-fold | 13 x-fold | 60% | – | Stimulation of hydrolysis of LLVY-MCA and LLE-βNA [2]: 6 fold
6 | γK188F: mutant REGγ in which Lys188 was changed to Phe | 40 | 4 x-fold | 4 x-fold | 13 x-fold | Dimer | remained monomers or dimers | –
7 | γK188H: mutant REGγ in which Lys188 was changed to His | 50 | 4 x-fold | 5 x-fold | 14 x-fold | >95% | remained fully heptameric | –
8 | γK188I: mutant REGγ in which Lys188 was changed to Ile | 60 | 3 x-fold | 2 x-fold | 12 x-fold | >95% | remained fully heptameric | Stimulation of hydrolysis of LLVY-MCA and LLE-βNA [2]: 2 fold
9 | γK188N: mutant REGγ in which Lys188 was changed to Asn | 75 | 5 x-fold | 5 x-fold | 14 x-fold | 80% | – | Colony screen for stimulation of LLVY-MCA cleavage [1]: positive
10 | γK188P: mutant REGγ in which Lys188 was changed to Pro | 40 | 1 x-fold | 1 x-fold | 12 x-fold | 50% | – | Heptamers dissociated during the second gel filtration ([3]; Superdex 200): About 50%
11 | γK188Q: mutant REGγ in which Lys188 was changed to Gln | 75 | 5 x-fold | 5 x-fold | 14 x-fold | 80% | – | –
12 | γK188R: mutant REGγ in which Lys188 was changed to Arg | 75 | 0.7 x-fold | 0.7 x-fold | 10 x-fold | >95% | remained fully heptameric | –
13 | γKI88S: mutant REGγ in which Lys188 was changed to Ser | 50 | 3 x-fold | 3 x-fold | 14 x-fold | >95% | remained fully heptameric | –
14 | γKl88C: mutant REGγ in which Lys188 was changed to Cys | 60 | 5 x-fold | 6 x-fold | 13 x-fold | 70% | – | Stimulation of hydrolysis of LLVY-MCA and LLE-βNA [2]: 6 fold
